Assay [1] addresses T1, human CLDN18.2 (NP_001002026.1) (human, UniProt P56856-2 1-261).
T1 construct: whole, on cells; KATO III cells also served as target cells in the ADCC assay; also called Claudin18.2; Claudin-18 splice variant 2
Nature of the assay: cell-based binding FACS on BAF3-CLDN18.2 cells, MFI against Con of mAb, nM is the unit of the x axis; the three mouse curves overlap and level off near MFI 2300-2400.
Experimental: (§1) The BAF3-CLDN18.2, BAF3-CLDN18.1 and BAF3 cells were harvested, washed twice and re-suspended in phosphate buffered saline (PBS) containing 2% v/v Fetal Bovine Serum (FACS buffer), BAF3 cells were used here as blank control. The cells, 1×10⁵ per well, were incubated in 96 well-plates with 100 μl serially diluted antibodies or controls (starting from 10 μg/mL, 5-fold serial dilution) in FACS buffer for 50 minutes on ice. […] Following an incubation of 50 minutes at 4° C. in dark, cells were washed three times and re-suspended in FACS buffer. Fluorescence was measured using a Becton Dickinson FACS Canto II-HTS equipment, and the MFI (mean fluorescence intensity) was plotted against antibody concentration. Data was analyzed using Graphpad Prism and EC₅₀ values were reported.

In assay [2] the target is T1, human CLDN18.2 (NP_001002026.1). Put plainly: cell-based blocking FACS on BAF3-CLDN18.2 cells; competitor: biotin labeled Zolbetuximab, SA-PE detection, nM is the unit of the x axis; signal falls from about 800-870 to about 110 at the last point.
Experimental: The anti-CLDN18.2 antibodies of the disclosure, and the controls were diluted with FACS buffer starting from 10 μg/mL with 5-fold serial dilution. BAF3-CLDN18.2 cells were harvested from cell culture flasks at the log phase, washed twice and re-suspended in PBS containing 2% v/v Fetal Bovine Serum (FACS buffer). […] Then the cells were washed twice with FACS buffer, added with 100 μl/well SA-PE (1:200 dilution in FACS buffer, Cat #:016-110-084, Jackson Immunoresearch), and incubated for 40 minutes at 4° C. in dark. Cells were washed twice and re-suspended in FACS buffer. Fluorescence was measured using a Becton Dickinson FACS Canto II-HTS equipment. Data was analyzed using Graphpad Prism and IC₅₀ values were reported.
The target is the same in assay [3]. Put plainly: cell-based binding FACS on BAF3-CLDN18.2 cells, MFI against Con of mAb, nM is the unit of the x axis; curve lies in a bundle of overlapping curves reaching MFI about 5000-6000.
Experimental: as §1
Assay [4] has the same target. Nature of the assay: cell-based binding FACS on BAF3-CLDN18.2 cells, MFI against Con of mAb, nM is the unit of the x axis; curve lies in a bundle of close curves reaching MFI about 5300-5900.
Experimental: as §1

This is an account of results in patent publication US20250136678A1 (BIOSION, published 2025).

B1: mouse antibody E1B1B8C7 (antibody, V domains shown)
VH: QVQLQQPGAELVRPGTSVKLSCKASGYSFTNYWVNWVKQRPGQGLEWIGMVHPSGSETRLNQQFKDKATLTVDKSSNTAYMQLNRPTSEDSAVYYCARVWSGNAFDYWGQGTTLIVSS
VL: DIVMTQSPSSLTVTAGEKVTLNCLSSQSLLNSGNQRNYLTWYQQKPGQPPKLLIYWASTRDSGVPDRFTGGGSGVDFTLTIYRVQAEDLAFYYCQNGFSFPFTFGSGTKLEMK
notes: Mouse hybridoma monoclonal antibody; also called mouse E1B1B8C7
A word on the EC50: it is the concentration that produces a half-maximal response. The term IC50 denotes the concentration that inhibits the measured activity by half. Low values mean higher potency, high ones lower potency. The molecule B1 had an EC50 in assay [1] of 2.24 nM. Further, the concentration for half-maximal inhibition (IC50) in assay [2] was 6.86 nM.

B2: mouse antibody E1H4C3E5 (antibody, V domains shown)
VH: QVQLQQPGAELVRPGTSVKLSCKASGYSFTNYWMNWVKQRPGQGLEWIGMIHPSGSESRLNQKFKDKATLTVDKSSNTAYMQLNRPTSADSAVYYCARVWSGNAFDYWGQGTTLIVSS
VL: DIVMTQSPSSLTVTAGEKVTLSCMSSQSLLNSGNQKNYLTWYQQKPGQPPKLLIFWASTRDSGVPDRFTGGGSGTLFTLTIYRVQAEDLAFYYCQNGFSFPFTFGSGTKLEMR
notes: Mouse hybridoma monoclonal antibody
In assay [1], B2 had an EC50 of 1.49 nM. In addition, the IC50 in assay [2] is 4.38 nM.

B3: mouse antibody E1A1F4B5 (antibody, V domains shown)
VH: QVQLQQPGAELVRPGTSVKLSCKASGYSFTNYWVNWVKQRPGQGLEWIGMIHPSGSETRLNQRFRDKTTLTVDRSSNTAYMQLNRPTSEDSAVYYCARVWSGNAFDYWGQGTTLIVSS
VL: DIVMTQSPSSLTVTAGEKVTLNCMSSQSLLNSGNQKNYLTWYQQKPGQPPKLLIYWASTRDSGVPDRFTGGGSGVDFTLTIYRVQAEDLAFYFCQNGFSFPFTFGSGTKLEMK
notes: Mouse hybridoma monoclonal antibody purified on Protein A
Regarding B3, the EC50 in assay [1] came to 1.76 nM. In assay [2], the IC50 was determined as 5.29 nM.

B4: huE1B1B8C7-V2 (antibody, human IgG1, kappa, V domains shown)
VH: QVQLVQSGAEVKKPGASVKVSCKASGYSFTNYWVNWVRQAPGQGLEWIGMVHPSGSETRLNQQFKDKATLTVDTSTSTVYMELSSLRSEDTAVYYCARVWSGNAFDYWGQGTLVTVSS
VL: DIVMTQSPDSLAVSLGERATINCLSSQSLLASGNQRNYLTWYQQKPGQPPKLLIYWASTRDSGVPDRFTGSGSGVDFTLTISSVQAEDVAVYYCQNGFSFPFTFGQGTKLEIKR
notes: Humanized, human IgG1/kappa; X positions as numbered in CLM-00003 and CLM-00004
For the molecule B4, in assay [3], it took 5.18 nM to reach a half-maximal effect (EC50).

B5: huE1B1B8C7-V7 (antibody, human IgG1, kappa, V domains shown)
VH: QVQLVQSGAEVKKPGASVKVSCKASGYSFTNYWVNWVRQAPGQGLEWIGMVHPSGSETRLNQQFKDKATMTVDTSTSTVYMELSSLRSEDTAVYYCARVWSGNAFDYWGQGTLVTVSS
VL: DIVMTQSPDSLAVSLGERATINCLSSQSLLASGNQRNYLTWYQQKPGQPPKLLIYWASTRDSGVPDRFTGSGSGVDFTLTISSVQAEDVAVYYCQNGFSFPFTFGQGTKLEIKR
notes: as for B4
In the case of B5, the EC50 in assay [3] was 3.89 nM.

B6: huE1B1B8C7-V12 (antibody, human IgG1, kappa, V domains shown)
VH: QVQLVQSGAEVKKPGASVKVSCKASGYSFTNYWVNWVRQAPGQGLEWIGMVHPSGSETRLNQQFKDKATLTVDKSTSTAYMELSSLRSEDTAVYYCARVWSGNAFDYWGQGTLVTVSS
VL: DIVMTQSPDSLAVSLGERATINCLSSQSLLASGNQRNYLTWYQQKPGQPPKLLIYWASTRDSGVPDRFTGSGSGTDFTLTISSVQAEDVAVYYCQNGFSFPFTFGQGTKLEIKR
B6: the EC50 in assay [4] came to 3.06 nM.

B7: huE1B1B8C7-V4 (antibody, human IgG1, kappa, V domains shown)
VH: QVQLVQSGAEVKKPGASVKVSCKASGYSFTNYWVNWVRQAPGQGLEWMGMVHPSGSETRLNQQFKDKATLTVDTSTSTVYMELSSLRSEDTAVYYCARVWSGNAFDYWGQGTLVTVSS
VL: DIVMTQSPDSLAVSLGERATINCLSSQSLLASGNQRNYLTWYQQKPGQPPKLLIYWASTRDSGVPDRFTGSGSGVDFTLTISSVQAEDVAVYYCQNGFSFPFTFGQGTKLEIKR
notes: as for B4
As to B7, the midpoint of the response in assay [3], the EC50, lay at 3.63 nM.

B8: huE1B1B8C7-V10 (antibody, human IgG1, kappa, V domains shown)
VH: QVQLVQSGAEVKKPGASVKVSCKASGYSFTNYWVNWVRQAPGQGLEWIGMVHPSGSETRLNQQFKDKATLTVDTSTSTVYMELSSLRSEDTAVYYCARVWSGNAFDYWGQGTLVTVSS
VL: DIVMTQSPDSLAVSLGERATINCLSSQSLLASGNQRNYLTWYQQKPGQPPKLLIYWASTRDSGVPDRFSGSGSGVDFTLTISSVQAEDVAVYYCQNGFSFPFTFGQGTKLEIKR
notes: as for B4
B8 had an EC50 in assay [4] of 5.74 nM.

B9: huE1B1B8C7-V14 (antibody, human IgG1, kappa, V domains shown)
VH: QVQLVQSGAEVKKPGASVKVSCKASGYTFTNYWVNWVRQAPGQGLEWIGMVHPSGSETRLNQQFKDKATLTVDTSTSTVYMELSSLRSEDTAVYYCARVWSGNAFDYWGQGTLVTVSS
VL: DIVMTQSPDSLAVSLGERATINCLSSQSLLASGNQRNYLTWYQQKPGQPPKLLIYWASTRDSGVPDRFTGSGSGTDFTLTISSVQAEDVAVYYCQNGFSFPFTFGQGTKLEIKR
notes: as for B4
In turn, B9 had an EC50 in assay [4] of 4.03 nM.

B10: huE1B1B8C7-V16 (antibody, human IgG1, kappa, V domains shown)
VH: QVQLVQSGAEVKKPGASVKVSCKASGYSFTNYWVNWVRQAPGQGLEWIGMVHPSGSETRLNQQFKDKATLTVDTSTSTVYMELSSLRSEDTAVYYCARVWSGNAFDYWGQGTLVTVSS
VL: DIVMTQSPDSLAVSLGERATINCLSSQSLLASGNQRNYLTWYQQKPGQPPKLLIYWASTRDSGVPDRFTGSGSGVDFTLTISSLQAEDVAVYYCQNGFSFPFTFGQGTKLEIKR
notes: as for B4
Regarding B10, the EC50 in assay [4] turned out to be 3.29 nM.

B11: huE1B1B8C7-V17 (antibody, human IgG1, kappa, V domains shown)
VH: QVQLVQSGAEVKKPGASVKVSCKASGYTFTNYWVNWVRQAPGQGLEWIGMVHPSGSETRLNQQFKDKATLTVDTSTSTVYMELSSLRSEDTAVYYCARVWSGNAFDYWGQGTLVTVSS
VL: DIVMTQSPDSLAVSLGERATINCLSSQSLLASGNQRNYLTWYQQKPGQPPKLLIYWASTRDSGVPDRFTGSGSGVDFTLTISSLQAEDVAVYYCQNGFSFPFTFGQGTKLEIKR
notes: as for B4
As for B11, the concentration for a half-maximal effect (EC50) in assay [4] was 4.87 nM.

B12: huE1B1B8C7-V5 (antibody, human IgG1, kappa, V domains shown)
VH: QVQLVQSGAEVKKPGASVKVSCKASGYSFTNYWVNWVRQAPGQGLEWIGMVHPSGSETRLNQQFKDRATLTVDTSTSTVYMELSSLRSEDTAVYYCARVWSGNAFDYWGQGTLVTVSS
VL: DIVMTQSPDSLAVSLGERATINCLSSQSLLASGNQRNYLTWYQQKPGQPPKLLIYWASTRDSGVPDRFTGSGSGVDFTLTISSVQAEDVAVYYCQNGFSFPFTFGQGTKLEIKR
notes: as for B4
In assay [3], B12 gave an EC50 of 4.33 nM.

B13: huE1B1B8C7-V11 (antibody, human IgG1, kappa, V domains shown)
VH: QVQLVQSGAEVKKPGASVKVSCKASGYTFTNYWVNWVRQAPGQGLEWIGMVHPSGSETRLNQQFKDKATLTVDTSTSTVYMELSSLRSEDTAVYYCARVWSGNAFDYWGQGTLVTVSS
VL: DIVMTQSPDSLAVSLGERATINCLSSQSLLASGNQRNYLTWYQQKPGQPPKLLIYWASTRDSGVPDRFSGSGSGVDFTLTISSVQAEDVAVYYCQNGFSFPFTFGQGTKLEIKR
notes: as for B4
As to B13, the EC50 in assay [4] came out at 5.39 nM.

B14: huE1B1B8C7-V1 (antibody, human IgG1, kappa, V domains shown)
VH: QVQLVQSGAEVKKPGASVKVSCKASGYSFTNYWVNWVRQAPGQGLEWIGMVHPSGSETRLNQQFKDKATLTVDKSTSTAYMELSSLRSEDTAVYYCARVWSGNAFDYWGQGTLVTVSS
VL: DIVMTQSPDSLAVSLGERATINCLSSQSLLASGNQRNYLTWYQQKPGQPPKLLIYWASTRDSGVPDRFTGSGSGVDFTLTISSVQAEDVAVYYCQNGFSFPFTFGQGTKLEIKR
notes: as for B4
B14 came in with an EC50 in assay [3] of 3.32 nM.

B15: huE1B1B8C7-V15 (antibody, human IgG1, kappa, V domains shown)
VH: QVQLVQSGAEVKKPGASVKVSCKASGYSFTNYWVNWVRQAPGQGLEWIGMVHPSGSETRLNQQFKDKATLTVDKSTSTAYMELSSLRSEDTAVYYCARVWSGNAFDYWGQGTLVTVSS
VL: DIVMTQSPDSLAVSLGERATINCLSSQSLLASGNQRNYLTWYQQKPGQPPKLLIYWASTRDSGVPDRFTGSGSGVDFTLTISSLQAEDVAVYYCQNGFSFPFTFGQGTKLEIKR
notes: as for B4
In assay [4], B15 registered a 50% effective concentration (EC50) of 2.76 nM.

B16: huE1B1B8C7-V6 (antibody, human IgG1, kappa, V domains shown)
VH: QVQLVQSGAEVKKPGASVKVSCKASGYSFTNYWVNWVRQAPGQGLEWIGMVHPSGSETRLNQQFKDKVTLTVDTSTSTVYMELSSLRSEDTAVYYCARVWSGNAFDYWGQGTLVTVSS
VL: DIVMTQSPDSLAVSLGERATINCLSSQSLLASGNQRNYLTWYQQKPGQPPKLLIYWASTRDSGVPDRFTGSGSGVDFTLTISSVQAEDVAVYYCQNGFSFPFTFGQGTKLEIKR
notes: as for B4
Consider B16, for which the midpoint of the response in assay [3], the EC50, lay at 3.1 nM.

B17: huE1B1B8C7-V3 (antibody, human IgG1, kappa, V domains shown)
VH: QVQLVQSGAEVKKPGASVKVSCKASGYTFTNYWVNWVRQAPGQGLEWIGMVHPSGSETRLNQQFKDKATLTVDTSTSTVYMELSSLRSEDTAVYYCARVWSGNAFDYWGQGTLVTVSS
VL: DIVMTQSPDSLAVSLGERATINCLSSQSLLASGNQRNYLTWYQQKPGQPPKLLIYWASTRDSGVPDRFTGSGSGVDFTLTISSVQAEDVAVYYCQNGFSFPFTFGQGTKLEIKR
notes: as for B4
B17: a half-maximal effect in assay [3] (EC50) was put at 3.7 nM.

B18: huE1B1B8C7-V9 (antibody, human IgG1, kappa, V domains shown)
VH: QVQLVQSGAEVKKPGASVKVSCKASGYSFTNYWVNWVRQAPGQGLEWIGMVHPSGSETRLNQQFKDKATLTVDKSTSTAYMELSSLRSEDTAVYYCARVWSGNAFDYWGQGTLVTVSS
VL: DIVMTQSPDSLAVSLGERATINCLSSQSLLASGNQRNYLTWYQQKPGQPPKLLIYWASTRDSGVPDRFSGSGSGVDFTLTISSVQAEDVAVYYCQNGFSFPFTFGQGTKLEIKR
notes: as for B4
In assay [3], B18 returned an EC50 of 2.31 nM.

B19: huE1B1B8C7-V13 (antibody, human IgG1, kappa, V domains shown)
VH: QVQLVQSGAEVKKPGASVKVSCKASGYSFTNYWVNWVRQAPGQGLEWIGMVHPSGSETRLNQQFKDKATLTVDTSTSTVYMELSSLRSEDTAVYYCARVWSGNAFDYWGQGTLVTVSS
VL: DIVMTQSPDSLAVSLGERATINCLSSQSLLASGNQRNYLTWYQQKPGQPPKLLIYWASTRDSGVPDRFTGSGSGTDFTLTISSVQAEDVAVYYCQNGFSFPFTFGQGTKLEIKR
notes: as for B4
In the case of B19, the EC50 in assay [4] turned out to be 3.46 nM.
